Tests used:
caspase-3 [1] = assay: Bioluminescent caspase-3 assay with L27V variant; type: biochemical; conditions: luminescence, 3 hrs room temperature
Method: (§1) 2. The L27V variant was used in a bioluminescent assay using a pro-coelenterazine substrate comprising the DEVD caspase-3 cleavage sequence. Purified caspase-3 enzyme (1 mg/mL) in 100 mM MES pH 6 (50 μL) was mixed with 227 nM L27V02 variant and 47 μM PBI-3741 (z-DEVD-coelenterazine-h) in assay buffer (50 μL). Reactions were incubated for 3 hrs at room temperature, and luminescence detected as previously described. The assay with the L27V variant was compared to a firefly luciferase version of the assay, CASPASE-GLO® 3/7-Assay system (Caspase-Glo; Promega Corp.).

caspase-3 [2] = target: T1, caspase-3 (Homo sapiens, UniProt P42574); assay: Bioluminescent caspase-3 assay with L27V variant; type: biochemical; conditions: luminescence, 3 hrs room temperature
T1 sequence (P42574 29-175 limits assumed): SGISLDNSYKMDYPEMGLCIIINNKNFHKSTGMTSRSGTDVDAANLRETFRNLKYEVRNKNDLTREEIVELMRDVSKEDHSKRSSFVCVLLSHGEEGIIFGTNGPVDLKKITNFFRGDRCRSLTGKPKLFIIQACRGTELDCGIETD
T1 sequence (P42574 176-277 limits assumed): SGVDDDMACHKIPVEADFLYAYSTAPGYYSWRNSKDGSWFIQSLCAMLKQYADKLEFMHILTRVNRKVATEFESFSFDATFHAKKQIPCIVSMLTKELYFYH
Method: as §1

[3] = Stability of secreted OgLuc variants in saved media; type: physicochemical; conditions: secreted variant in saved media
Method: To determine if the secretion signal sequence of OgLuc facilitates its secretion, the OgLuc variants 9B8, V2 and L27V were cloned into pF4Ag containing an N-terminal OgLuc secretion signal sequence. The variants were also cloned into vectors without the secretion signal sequence. CHO or HeLa cells were then plates at 100,000 cells/well in 1 mL F12 media with 10% FBS and 1× sodium pyruvate (CHO cells) or DMEM with 10% FBS and 1× sodium pyruvate (HeLa cells) into 12-well plates and incubated overnight at 37° C., 5% CO2.
After the overnight incubation, the cells were transfected with 1 μg plasmid DNA containing 9B8, V2, or L27V with or without the secretion signal sequence using the TRANSIT®-LT1 transfection reagent (Mirus Bio) and OPTI-MEMO media (Invitrogen). The cells were again incubated overnight at 37° C., 5% CO2.
After the second overnight incubation, the media was removed and saved for analysis. […] To 10 μL of cell lysate or saved media from each sample, 50 μL assay buffer with 40 μM PBI-3939 was added, and luminescence measured as described above.
To determine the stability of the secreted variants, 150 μL aliquots of the saved media from each sample was placed at 37° C. or 50° C. The aliquots were then removed at different time points (0, 1, 2, 3, 5, 6, and 7 […]), frozen on dry ice, and kept at −20° C. until assayed. To assay for stability, the media aliquots were thawed to room temperature, and 10 μL of each aliquot was mixed with assay buffer with PBI-3939 (pH 6.0) as described above. Luminescence was measured as above, and the half-life (t50) determined (Table 34).

NIH3T3 cells [4] = assay: Luminescence in sandwich background, NIH3T3 cells; type: cell-based; conditions: non-sandwich versus sandwich
Method: The PCR library in the Id-OgLuc-HT7 sandwich background was screened for additional variants with increased luminescence compared to 9B8 opt+K33N in sandwich background. Selected variants were then assayed in HEK293 and NIH3T3 cells. […] 1F7 (F) (SEQ ID NOs: 84 and 85) and 15H1 (F) (SEQ ID NOs: 86 and 87) had at least 1.3 fold-increase in luminescence in E. coli. 1F7 (F) was brighter than 9B8 opt+K33N in the sandwich background in HEK293 and NIH3T3 cells.
The variants 9B8 opt+K33N+T39T+K43R+Y68D (“V2”; SEQ ID NOs: 92 and 93), 9B8 opt+K33N+L27V+K43R+Y68D (SEQ ID NOs: 339 and 340), 9B8 opt+K33N+L27V+T39T+K43R+S66N (SEQ ID NOs: 341 and 342), and 9B8 opt+K33N+L27V+T39T+K43R+Y68D (“L27V”; SEQ ID NOs: 88 and 89) were subcloned into the Id-OgLuc-HT7 sandwich background as described above and assayed in HEK293 and NIH3T3 cells as described above. The luminescence generated by the sandwiched variants were compared to the luminescence generated by the […] sandwich (SEQ ID NOs: 59 and 60) (Table 38). The L27V sandwich (SEQ ID NOs: 90 and 91) and V2 sandwich (SEQ ID NOs: 94 and 95) had at least 1.3× fold-increase in luminescence in HEK293 and NIH3T3 cells.
The sandwich and non-sandwich versions of the variants V2, 9B8 opt+K33N+L27V+K43R+Y68D, 9B8 opt+K33N+L27V+T39T+K43R+S66N, and L27V were assayed in HEK293 and NIH3T3 cells as described in Example 37. The luminescence generated by the non-sandwiched variants was compared to the luminescence generated by the sandwiched variants (Table 39).

NIH3T3 cells [5] = assay: Luminescence of OgLuc variants expressed in NIH3T3 cells; type: cell-based
Method: The PCR library in the pF4Ag-based non-fusion background was screened for additional variants with increased luminescence compared to 9B8 opt+K33N+170G (SEQ ID NOs: 68 and 69). Selected variants were then assayed in HEK293 and NIH3T3 cells. For each cell type, 15,000 cells were plated and grown overnight at 37° C. The next day, the cells were transfected as described in Example 25 with 10 ng pGL4.13 (Promega Corp.) as a transfection control and 100 ng of the OgLuc test DNA. The media was removed, and the cells were lysed with 100 μL of lysis buffer as described in Example 25 except the lysis buffer contained 100 mM MES pH 6.0 instead of HEPES, and luminescence measured using a GLOMAX® Luminometer.
Based on the above data, further combination variants were designed and generated (see Table 10) in the context of the pF4Ag-based non-fusion vector background without the 170G. The variants were analyzed in E. coli, HEK293 and NIH3T3 cells as described above and compared to 9B8 opt+K33N. The variants were also examined for luminescence with native coelenterazine.
The brightness of the variants expressed in HEK293 and NIH3T3 cells was measured as described previously. The luminescence of the variants was normalized to the luminescence generated by 9B8 opt (Table 27).

B1: L27V: 9B8 opt+K33N variant with L27V, T39T, K43R, Y68D (SEQ ID NO: 89) (protein)
chain: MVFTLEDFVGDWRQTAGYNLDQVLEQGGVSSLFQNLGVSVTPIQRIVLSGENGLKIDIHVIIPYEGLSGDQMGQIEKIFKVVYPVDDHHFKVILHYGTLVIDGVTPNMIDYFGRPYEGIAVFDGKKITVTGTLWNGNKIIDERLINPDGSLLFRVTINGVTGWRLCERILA
For B1, the “(−) caspase” value (caspase-3 [1]) was 803, the “(+) caspase” value (caspase-3 [2]) was 11,532 and the “½ life 37 C.” value [3] was 17 days. The “½ life 50 C.” value [3] was 11 h, the “Fold-decrease in luminescence in the presence of sandwich background, NIH 3T3 cells” value (NIH3T3 cells [4]) was 18 and the “luminescence normalized to 9B8 opt, NIH3T3” value (NIH3T3 cells [5]; PBI-3939) was 1.6. For the same molecule, the “Fold over 9B8 opt + K33N, NIH3T3” value (NIH3T3 cells [5]; luminescence, PBI-3939) was 0.7 and the “Fold over Native Coelenterazine, NIH3T3” value (NIH3T3 cells [5]; relative specificity for PBI-3939 compared to native coelenterazine) was 85.

From patent US9951373B2, “Oplophorus-derived luciferases, novel coelenterazine substrates, and methods of use” (Promega Corporation, priority 2010, dated 2018)
